The results in this text go back to publication PMC3251565.

The assay addresses platelet integrin αIIbβ3 (human (endogenous in platelets)) (UniProt P08514).

Substance “Rhodostomin (from UniProt P30403) (natural protein)” displayed an IC50 (KI in the text) of inhibition of ADP-induced platelet aggregation in human PRP of 83.2 nM.
